Reference: patent US20240182575A1 (Ablynx, published 2024)
Positions count from the first letter of the chain named.

How the values were obtained:
[1] = biological target: T1, rhPDL2-Fc (fusion protein of the extracellular part of human PD-L2 and mouse Fc gamma 1, R&D Systems Cat … (human; mouse, UniProt Q9BQ51 20-220; P01868 98-324 = IgG part, limits assumed); assay: competition ELISA, coated PD-L2; blocked ligand PD-1-biotin
T1 construct: extracellular domain;domain: Fc; bought; also called PD-L2 ectodomain
Experimental: In short, 2 μg/ml PD-L2 ectodomain (R&D Systems, Minneapolis, US, Cat #1224-PL) was immobilized on maxisorp microtiter plates (Nunc, Wiesbaden, Germany) and free binding sites were blocked using 4% Marvel in PBS. Next, 0.5 μg/ml of PD-1 was preincubated with a dilution series of purified Nanobody.

[2] = biological target: T2, rhB7-H2-Fc (fusion protein of the extracellular part of human B7-H2 (ICOSL) and mouse Fc gamma 1, R&D Systems … (human; mouse, UniProt O75144 19-256; P01868 98-324 = IgG part, limits assumed); assay: competition ELISA, coated B7-H2; blocked ligand ICOS-biotin
T2 construct: extracellular domain;domain: Fc; bought; also called B7-H2 ectodomain

[3] = biological target: T3, HuCD28-HuIgG1 (fusion protein of the extracellular part of human CD28 and human Fc gamma 1, R&D Systems Cat … (human, UniProt P10747 19-152; P01857 100-330 = IgG part); assay: competition ELISA, CD28-hFc in solution; blocked ligand coated B7-1-muFc
T3 construct: extracellular domain;domain: Fc; bought; also called CD28-Ig; hCD28-Fc

[4] = biological target: T4, rhPD1-Fc (fusion protein of the extracellular part of human PD-1 and mouse Fc gamma 1, R&D Systems Cat … (human; mouse, UniProt Q15116 25-170; P01868 98-324 = IgG part, limits assumed); assay: competition ELISA, coated PD-1; blocked ligand PD-L2-biotin
T4 construct: extracellular domain;domain: Fc; bought; also called PD-1 ectodomain
Experimental: (§1) In short, 2 μg/ml PD-1 ectodomain (R&D Systems Cat #1086-PD, Minneapolis, US) was immobilized on maxisorp microtiter plates (Nunc, Wiesbaden, Germany) and free binding sites were blocked using 4% Marvel in PBS.

[5] = biological target: T4, rhPD1-Fc (fusion protein of the …); assay: competition ELISA, coated PD-1; blocked ligand B7-H1-biotin
Experimental: as §1

[6] = biological target: T5, Human IgG1, purified from a human plasma (Sigma-Aldrich Cat #I-5154) (human); assay: ELISA, periplasmic extract on coated antigen, anti-myc detection
T5 construct: also called HuIgG1
Text: (§2) To this end, 3 independent ELISA assays were set up. In these ELISAs, either HuCD80 or HuCD86 fusion proteins or human IgG1 were coated on ELISA plates which were washed and then blocked using Marvel skimmed milk powder (Premier Brands UK Ltd., Wirral, Merseyside, UK). […] Four aliquots of periplasmic extract of individual clones prepared as described in Example 4 were allowed to bind in all four types of ELISA plates. Binding of Nanobody to immobilized antigen was detected using mouse anti-c-myc tag monoclonal antibody as a secundary, followed by a goat-anti-mouse (human and bovine serum protein pre-absorbed) HRP conjugate for detection (for detailed protocol, see the prior art and prior applications filed by applicant).

[7] = biological target: T6, HuCD86-HuIgG1 (fusion protein of the extracellular part of human CD86 and human Fc gamma 1, R&D Systems Cat … (human, UniProt P42081 24-247)); assay: as above
T6 construct: extracellular domain; bought; also called CD86-IgG1; CD86-Ig; not shown: human Fc gamma 1
T6 sequence (looked up): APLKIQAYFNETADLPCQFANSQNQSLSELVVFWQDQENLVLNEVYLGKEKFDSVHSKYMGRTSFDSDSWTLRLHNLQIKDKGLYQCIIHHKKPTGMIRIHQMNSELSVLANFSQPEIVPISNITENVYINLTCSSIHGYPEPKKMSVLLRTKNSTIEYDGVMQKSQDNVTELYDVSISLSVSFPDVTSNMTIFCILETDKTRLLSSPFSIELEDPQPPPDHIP
Text: as §2

[8] = biological target: T7, HuCD80-HuIgG1 (fusion protein of the extracellular part of human CD80 and human Fc gamma 1, R&D Systems Cat … (human, UniProt P33681 35-242)); assay: as above
T7 construct: extracellular domain; bought, produced in NS0 cells; also called CD80-IgG1; CD80-Ig; not shown: human Fc gamma 1
T7 sequence (looked up): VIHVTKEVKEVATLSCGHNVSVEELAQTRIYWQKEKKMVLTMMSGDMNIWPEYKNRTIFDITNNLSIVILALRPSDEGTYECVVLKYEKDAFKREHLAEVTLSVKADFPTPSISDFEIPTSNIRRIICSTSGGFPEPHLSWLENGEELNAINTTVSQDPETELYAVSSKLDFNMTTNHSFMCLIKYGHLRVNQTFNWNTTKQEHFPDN
Text: as §2

[9] = biological target: T6, HuCD86-HuIgG1 (fusion protein of the …); assay: SPR, Biacore 3000, antigen amine-coupled
Experimental: (§3) Affinity constants (Kd) of individual purified Nanobody clones were determined by surface plasmon resonance on a Biacore 3000 instrument. […] Remaining reactive groups were inactivated using ethanolamine. Nanobody binding was assessed at 1 and 0.1 microM. Each sample was injected for 4 min at a flow rate of 45 μl/min to allow for binding to chip-bound antigen. Next, binding buffer without Nanobody was sent over the chip at the same flow rate to allow for dissociation of bound Nanobody. After 2 min, remaining bound analyte was removed by injecting regeneration solution (50 mM NaOH or Glycine/HCl pH 1.5). Binding curves obtained at different concentrations of Nanobody were used to calculate Kd values.

[10] = biological target: T7, HuCD80-HuIgG1 (fusion protein of the …); assay: SPR, Biacore 3000, antigen amine-coupled
Experimental: as §3

B1: 103F6 (VHH)
VHH: EVQLVESGGGLVQPGGSLRLSCAASGFTFSTYTMIWLRRAPGKGFEWVSTIDKDGNTNYVDSVKGRFAVSRDNTKNTLYLQMNSLKPEDTAMYYCTKHGSSARGQGTRVTVSS
notes: Nanobody against PD-L2
In the case of B1, the “IC50 (read off the curve)” value [1] is reported as about 7 nM.

B2: 95A6 (VHH)
VHH: EVQLVESGGGLVQAGGSLRLSCALSGRAVSIAATAMGWYRQAPGKQRELVAARWSGGSIQYLDSVKGRFTISRDNAKNTVYLQMNSLTPEDTAVYYCNTLPWRANYSGQGTQVTVSS
notes: Nanobody against B7-H2 (ICOSL)
In the case of B2, the “IC50 (read off the curve)” value [2] is reported as about 10 nM.

B3: 95F8 (VHH)
VHH: EVQLVESGGGLVQAGGSLRLSCAASGIAFSIDIMDWYRQAPGKERELVATISGGGSTNYADSVKGRFIVSRDNAKNILYLQMNSLKPDDTAVYYCNARRLIYGRTVYWGQGTQVTVSS
notes: as for B2
In the case of B3, the “IC50 (read off the curve)” value [2] is reported as about 8 nM.

B4: 95H8 (VHH)
VHH: EVQLVESGGGLVQTGGSLRLSCAASSSTSTSSIDVMGWYRQSPGKQRELVASISSFGSTYYADSVKGRFIISRDNAKNTVNLQMNNLKLEDTAVHFCNLRRLSPPPLLDYWGQGTQVTVSS
notes: as for B2
For B4, the “IC50 (read off the curve)” value [2] was about 10 nM.

B5: 95B11 (VHH)
VHH: EVQLVESGGGLVQPGGSLRLSCAASRSISSFNLLGWYRQAPGKQRELVAHLLSGGSTVYPDSVKGRFTVSRDNTKNTVYLQMNSLKPEDTAVYYCNAIAPALGSSWGQGTQVTVSS
notes: as for B2
With B5 the “IC50 (read off the curve)” value [2] was about 10 nM.

B6: 70F9 (VHH)
VHH: EVQLVESGGGLVQAGGSLRLSCAASGRTFSSYVMGWFRQAPGKEREFVAAHSWYADYADSVKGRFSISRDNDKNTVYLQMNSLKPEDTAVYYCAASRSQGRRYANSYESWGQGTQVTVSS
notes: Nanobody against CD28
B6 was tested, and the “IC50 (read off the curve)” value [3] was about 100 nM.

B7: 70F10 (VHH)
VHH: EVQLVESGGGLVQAGGSLRLSCAASGFTFDDYAIGWFRQAPGKEREGVACVSNSDGSTYYANSVKGRFTISSDNAKNTVYLQMNSLKPEDTAVYYCAADSRCWGWGMLHMRHGDRGQGTQVTVSS
notes: Nanobody against CD28
For B7, the “IC50 (read off the curve)” value [3] was about 200 nM.

B8: 102C3 (VHH)
VHH: EVQLVESGGGLVQAGKSLRLSCAASGSIFSIHAMGWFRQAPGKEREFVAAITWSGGITYYEDSVKGRFTISRDNAKNTVYLQMNSLKPEDTAIYYCAADRAESSWYDYWGQGTQVTVSS
notes: Nanobody against PD-1
For B8, the “IC50 (read off the curve)” value [4] was about 10 nM and the “IC50 (read off the curve)” value [5] was about 10 nM.

B9: 102C12 (VHH)
VHH: B8 VHH with K16G, F29A, A50V, E61A, A98G, R100K, A101H, E102Q
notes: Nanobody against PD-1
For B9, the “IC50 (read off the curve)” value [4] was about 70 nM and the “IC50 (read off the curve)” value [5] was about 80 nM.

B10: 102E2 (VHH)
VHH: B8 VHH with K16G, F29S, E61A, V64L, V79G, E102Q
notes: Nanobody against PD-1
B10 was tested, and the “IC50 (read off the curve)” value [4] was about 70 nM and the “IC50 (read off the curve)” value [5] was about 70 nM.

B11: 102E8 (VHH)
VHH: B8 VHH with K16G, R19G, H32N, G35A, A50L, T52S, I57S, A101V, E102D, S104N
notes: Nanobody against PD-1
With B11 the “IC50 (read off the curve)” value [4] was about 200 nM and the “IC50 (read off the curve)” value [5] was about 200 nM.

B12: 103E2 (VHH)
VHH: EVQLVESGGGLVQAGGSLRLSCAASGSTFSNYVSNYAMGWGRQAPGTQRELVASISNGDTTNYADSVKGRFTISRDNAKNTVYLQMNSLKPEDTAVYYCFEHQVAGLTWGQGTQVTVSS
notes: Nanobody against PD-L2
In the case of B12, the “IC50 (read off the curve)” value [1] is reported as about 10 nM.

B13: CD8086PMP1A3 (VHH)
VHH: EVQLVESGGGLVQAGGSLRLSCAASGPTSSSYSMGWFRQAPGKEREFVAAINWSHGVTYYADSVKGRFTISRDIAKNTVYLQMNSLKPEDTAVYYCAANEYGLGSSIYAYKHWGQGTQVTVSS
notes: not shown: C-terminal c-myc tag and His6 tag
B13 showed an OD [6] of 0.052 OD, an OD [7] of 0.053 OD and an OD [8] of 1.92 OD.

B14: CD8086PMP1D1 (VHH)
VHH: EVQLVESGGGLVQAGGSLRLSCAASGRTFSSKAMGWFRQAPGKERDFVAAITWSGGSTYYADHVKGRFTISRDNAKNTVYLQMNSLKPEDTAVYYCATNPYGLGQVGYDYWGQGTQVTVSS
notes: as for B13
Work on B14 yielded an OD [6] of 0.046 OD, an OD [7] of 0.043 OD and an OD [8] of 1.89 OD.

B15: CD8086PMP2A7 (VHH)
VHH: B14 VHH
notes: as for B13
Binder B15 has an OD [6] of 0.043 OD, an OD [7] of 0.042 OD and an OD [8] of 1.71 OD.

B16: CD8086PMP2B10 (VHH)
VHH: EVQLVESGGGLVQAGGSLRLSCTGSQISFSDNTMNWYRQVPGKQRELVASLSIFGATGYADSVKGRFTISRDIAGNTVYLQMNDLKIEDTAVYYCKLGPVRRSRLEYWGQGTQVTVSS
notes: as for B13
B16 was tested, and the OD [6] was 0.044 OD, the OD [7] was 1.73 OD and the Kd [9] was 4 nM. For the same binder, the koff [9] was 0.00097 s⁻¹ and the kon [9] was 250000 M⁻¹ s⁻¹.

B17: CD8086PMP2E6 (VHH)
VHH: EVQLVESGGGLVQAGGSLRLSCAASGSIFSIYDMGWYRQAPGKQRVLVATITSGGSTNYADSVKGRFTISRDDAKNTVYLQMNSLKPEDTAVYYCNAIAHEEGVYRWDFWGQGTQVTVSS
notes: as for B13
In the case of B17, the OD [6] is reported as 0.049 OD, the OD [7] is reported as 0.538 OD and the OD [8] is reported as 1.52 OD.

B18: CD8086PMP2F5 (VHH)
VHH: B17 VHH with E6K, V46E, T50A, D73N, H100Y
notes: as for B13
B18 showed an OD [6] of 0.056 OD, an OD [7] of 0.774 OD and an OD [8] of 1.65 OD.

B19: CD8086PMP1B2 (VHH)
VHH: EVQLVESGGGLVQAGGSLRLSCAASGRSFSSYVMGWFRQAPGKEREFVAAIIGRDIGTYYADSVKGRFTISRDNAKTTVYLQMNALKPEDTAVYYCAADSRSRLSGIRSAYDYWGQGTVTVSS
notes: as for B13
B19 gave an OD [6] of 0.046 OD, an OD [7] of 0.038 OD and an OD [8] of 1.99 OD. For the same binder, the binding result [9] was “no binding (tested: 1 and 0.1 microM)”, the Kd [10] was 0.13 nM and the koff [10] was 5.9e-05 s⁻¹. The kon [10] was 440000 M⁻¹ s⁻¹.
